Data: patent US7544481 (REGENTS OF THE UNIVERSITY OF MICHIGAN, dated 2009)

B1: GSTCD40T (GST fused to the native CD40 cytoplasmic domain) (other, human, UniProt P25942 216-277, looked up)
chain: KKVAKKPTNKAPHPKQEPQEINFPDDLPGSNTAAPVQETLHGCQPVTQEDGKESRISVQERQ
notes: range 216-279; Immobilized on glutathione-agarose beads; also called native CD40 (GSTCD40T); not shown: glutathione S-transferase of the vector pGSTag
B2: CD40bp fused to the activation domain of GAL4 (other, not shown: large carriers)
chain: MESSKKMDSPGALQTNPPLKLHTDRSAGTPVFVPEQGGYKEKFVKTVEDKYKCEKCHLVLCSPKQTECGHRFCESCMAALLSSSSPKCTACQESIVKDKVFKDNCCKREILALQIYCRNESRGCAEQLMLGHLVHLKNDCHFEELPCVRPDCKEKVLRKDLRDHVEKACKYREATCSHCKSQVPMIALQKHEDTDCPCVVVSCPHKCSVQTLLRSELSAHLSECVNAPSTCSFKRYGCVFQGTNQQIKAHEASSAVQHVNLLKEWSNSLEKKVSLLQNESVEKNKSIQSLHNQICSFEIEIERQKEMLRNNESKILHLQRVIDSQAEKLKELDKEIRPFRQNWEEADSMKSSVESLQNRVTELESVDKSAGQVARNTGLLESQLSRHDQMLSVHDIRLADMDLGFQVLETASYNGVLIWKIRDYKRRKQEAVMGKTLSLYSQPFYTGYFGYKMCARVYLNGDGMGKGTHLSLFFVIMRGEYDALLPWPFKQKVTLMLMDQGSSRRHLGDAFKPDPNSSSFKKPTGEMNIASGCPVFVAQTVLENGTYIKDDTIFIKVIVDTSDLPDP
notes: Prey from a human B-cell cDNA library; also called CD40bp (yeast prey, pACT)
B3: cytoplasmic domain of the p55 TNF receptor (amino acids 206-426) fused to the DNA-binding domain of GAL4 (other, UniProt P04386 1-147, looked up)
chain: MKLLSSIEQACDICRLKKLKCSKEKPKCAKCLKNNWECRYSPKTKRSPLTRAHLTEVESRLERLEQLFLLIFPREDLDMILKMDSLQDIKALLTGLFVQDNVNKDAVTDRLASVETDMPLTLRQHRISATSSSEESSNKGQRQLTVSRYQRWKSKLYSIVCGKSTPEKEGELEGTTTKPLAPNPSFSPTPGFTPTLGFSPVPSSTFTSSSTYTPGDCPNFAAPRREVAPPYQGADPILATALASDPIPNPLQKWEDSAHKPQSLDTDDPATLYAVVENVPPLRWKEFVRRLGLSDHEIDRLELQNGRCLREAQYSMLATWRRRTPRREATLELLGRVLRDMDLLGCLEDIEEALCGPAALPPAPSLLR
notes: The numbering probably counts on the mature receptor; also called pTNFR

Assays:
[1] = target: [35S]methionine-labeled luciferase protein (UniProt P08659 1-550 = luciferase, limits assumed, [35S]methionine label); assay: GST pull-down of in vitro translated 35S-labeled protein, autoradiography
Sequence of [35S]methionine-labeled luciferase protein (P08659 whole entry, the tested form may be a part): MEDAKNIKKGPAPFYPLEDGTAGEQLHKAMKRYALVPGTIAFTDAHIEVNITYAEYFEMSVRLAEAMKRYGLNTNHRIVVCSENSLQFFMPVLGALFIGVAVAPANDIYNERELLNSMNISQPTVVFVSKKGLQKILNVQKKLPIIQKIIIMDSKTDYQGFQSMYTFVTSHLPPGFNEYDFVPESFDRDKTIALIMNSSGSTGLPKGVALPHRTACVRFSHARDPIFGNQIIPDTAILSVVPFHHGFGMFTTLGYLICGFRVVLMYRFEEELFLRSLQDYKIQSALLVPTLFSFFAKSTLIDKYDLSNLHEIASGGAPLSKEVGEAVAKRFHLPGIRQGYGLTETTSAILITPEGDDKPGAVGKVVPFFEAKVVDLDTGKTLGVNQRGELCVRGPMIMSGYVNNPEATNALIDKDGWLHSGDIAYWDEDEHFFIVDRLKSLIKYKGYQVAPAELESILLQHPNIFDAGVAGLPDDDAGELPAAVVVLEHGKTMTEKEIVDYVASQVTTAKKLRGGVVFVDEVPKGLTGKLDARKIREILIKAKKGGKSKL
Experimental: GST Fusion Protein Expression and In Vitro Binding Assay—Native (CD40T) and mutant (CD40A) CD40 sequences used in the construction of the yeast bait vectors were excised and subcloned into the glutathione S-transferase ("GST") fusion protein vector pGSTag (as described in Ron et al. (1992) *BioTechniques* 13:866-869) and transformed into the *Escherichia coli* strain BL21 […] pLysS (as described in Studier et al. (1991) *J. Mol. Bio.* 219:37-44). GST and GST fusion proteins were prepared using published procedures of Studier et al. (1991) supra, and the recombinant proteins were immobilized onto glutathione-agarose beads at a concentration of about 8 mg/ml (as described in Harper et al. (1993) supra).
Figure 2: FIGS. 2A and 2B show the interaction of in vitro translated CD40bp with GST fusion proteins. [^35S]Methionine-labeled CD40bp or luciferase protein as control was incubated with GST alone, GSTCD40T (native CD40 cytoplasmic domain), or GSTCD40A (mutant CD40 cytoplasmic domain $Thr^234 \rightarrow Ala$). Following incubation and washing, GST beads were boiled in SDS-sample buffer and resolved on a 10% acrylamide gel, and bound protein was visualized by autoradiography.

[2] = target: yeast Ser-Thr kinase SNF1 fused to the DNA-binding domain of GAL4 (yeast, UniProt P04386 1-147; P06782 1-633, limits assumed); assay: yeast two-hybrid cotransformation, beta-galactosidase filter assay
Excerpt: (§1) Yeast Two-hybrid Screen—Using a modification of the method of Harper et al. (1993) *Cell* 75:805-816, a hybrid gene encoding the GAL4 DNA-binding domain (amino acids 1-147), hemagglutinin ("HA") epitope tag, and CD40 cytoplasmic region (amino acids 216-279) was constructed in the yeast bait vector pAS1CYH2. This construct was designated GAL4CD40, and expression of the fusion protein was confirmed by anti-HA immunoblotting. This bait plasmid was cotransformed with a human B-cell cDNA expression library (prey) fused to the activation domain of GAL4 in the pACT plasmid. Interaction between bait- and prey-encoded genes in the Y190 yeast strain reconstitutes GAL4 as an active transcriptional complex, allowing growth in the absence of histidine and activation of the β-galactosidase reporter gene. Thirty-six of the 10^6 transformants screened grew in the absence of histidine and had detectable β-galactosidase staining within 10 minutes of incubation with the chromogenic substrate 5-bromo-4-chloro-3-indolyl β-D-galactoside. […] Cotransformation assays were repeated in the yeast Y190 strain, where CD40bp fused to the activation domain of GAL4 was cotransformed with native CD40 (pCD40T) or the indicated heterologous baits expressed as fusions with the DNA-binding domain of GAL4. […]

[3] = target: B2; assay: as above
Excerpt: as §1

Binder: B1
binding result [1]: no binding

Binder: B2
binding result [2]: no binding

Binder: B3
binding result [3]: no binding
